From PMC8016950 (2021)

Molecular target: full length human galectin-3 (hGal3), Cys173 mutated to Thr (human, UniProt P17931 1-250, Cys173 mutated to Thr)
Test: SPR

Chain of full length human galectin-3 (hGal3), Cys173 mutated to Thr (P17931 other isoform, or with tags, fused parts or gaps Cys173 mutated to Thr): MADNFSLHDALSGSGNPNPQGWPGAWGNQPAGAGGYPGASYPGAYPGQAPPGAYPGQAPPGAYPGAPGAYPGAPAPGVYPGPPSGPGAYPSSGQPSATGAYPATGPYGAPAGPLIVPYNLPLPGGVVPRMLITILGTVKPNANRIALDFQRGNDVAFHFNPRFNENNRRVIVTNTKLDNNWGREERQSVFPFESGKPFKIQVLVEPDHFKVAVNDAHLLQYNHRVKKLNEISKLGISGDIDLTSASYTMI

B1: GaletuzuFab-PAS200-Cys (Fab, V domains shown)
VH: QIQLVQSGAEVKKPGESLKISCKVSGYTFTDYAIHWVRQMPGKGLKWMGWINTYTGKPIYADDFKGQVIISLDKSINTAYLQWSSLKASDTAIYYCARGTMMASLDYWGQGTTVTVSS
VL: DVVMTQSPSSLSASVGDRVTITCKSSQSLVHSDGKTYLSWIQQKPGKAPKGLIYLVSKLDSGVPSRFSGSGSETDFTLTISSLQPEDSATYYCWQATHFPLTFGPGTKVDIR
Kd: 0.31 nM
